Results taken from article PMC10917784.
Values joined by “and” are separate entries in the source; they are usually repeats but may differ in a detail not shown here. Identical values can stand only once.

How the values were obtained:
SIRPα (Homo sapiens) = SIRPα (Homo sapiens) (UniProt P78324); conditions: cited from earlier work
trastuzumab [1] = assay: SPR; antibody constructs captured on a Protein L Series S CM5 chip, FcRn flowed over; Biacore 8K+, 25 °C, pH 6.0; steady state affinity model; three replicates
[2] = target: ISB 1442, CD38 and CD47 bispecific biparatopic antibody (enhanced Fc) (human); assay: as above
[3] = target: ISB 1442 with a wild-type Fc (without Fc enhancing mutations) (human); assay: as above
trastuzumab [4] = assay: SPR; antibody constructs captured on a Protein L Series S CM5 chip, Fc receptors flowed over; Biacore 8K+, 25 °C, neutral pH; 1:1 binding model (FcγRI and FcγRIIIa); three replicates
[5] = target: ISB 1442, CD38 and CD47 bispecific biparatopic antibody (enhanced Fc) (human); assay: as above
[6] = target: ISB 1442 silenced Fc (human); assay: SPR; antibody constructs immobilised on a Protein L Series S CM5 chip, increasing concentrations of FcRn flushed; Biacore 8K+, 25 °C, pH 6.0; steady state affinity model
ISB 1442 (human) [7] = assay: as above
Trastuzumab [8] = assay: SPR; antibody constructs immobilised on a Protein L Series S CM5 chip, increasing concentrations of Fc receptor flushed; Biacore 8K+, 25 °C, neutral pH; 1:1 binding model
ISB 1442 (human) [9] = assay: as above
ISB 1442 WT Fc (human) = assay: as above

his-tagged human FcγRIIIa ECD, sequence (P08637 17-208): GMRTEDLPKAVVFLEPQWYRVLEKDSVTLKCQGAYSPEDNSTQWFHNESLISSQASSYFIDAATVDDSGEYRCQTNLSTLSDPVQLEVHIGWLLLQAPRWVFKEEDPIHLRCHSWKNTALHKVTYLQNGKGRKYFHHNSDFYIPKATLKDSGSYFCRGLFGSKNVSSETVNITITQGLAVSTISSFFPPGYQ
his-tagged human FcRn ECD & β2 microglobulin, sequence (P55899 24-297): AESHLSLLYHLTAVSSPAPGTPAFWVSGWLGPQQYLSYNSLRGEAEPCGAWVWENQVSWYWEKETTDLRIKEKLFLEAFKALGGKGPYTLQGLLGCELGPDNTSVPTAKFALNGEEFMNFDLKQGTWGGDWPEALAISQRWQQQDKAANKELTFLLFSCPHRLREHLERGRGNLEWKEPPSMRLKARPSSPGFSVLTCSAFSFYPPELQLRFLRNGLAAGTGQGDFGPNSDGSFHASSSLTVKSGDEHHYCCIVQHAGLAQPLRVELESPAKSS
his-tagged human FcRn ECD & β2 microglobulin, sequence (P61769 21-119): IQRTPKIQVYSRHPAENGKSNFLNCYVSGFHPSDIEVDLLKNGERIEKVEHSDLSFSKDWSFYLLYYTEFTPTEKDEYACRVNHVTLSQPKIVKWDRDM
human FcγRIIIa ECD, sequence (P08637 17-208): as the sequence (P08637 17-208) above
human FcRn ECD & β2 microglobulin, sequence (P55899 24-297): as the sequence (P55899 24-297) above
human FcRn ECD & β2 microglobulin, sequence (P61769 21-119): as the sequence (P61769 21-119) above
human FcγRI extracellular domain (ECD), sequence (P12314 16-292): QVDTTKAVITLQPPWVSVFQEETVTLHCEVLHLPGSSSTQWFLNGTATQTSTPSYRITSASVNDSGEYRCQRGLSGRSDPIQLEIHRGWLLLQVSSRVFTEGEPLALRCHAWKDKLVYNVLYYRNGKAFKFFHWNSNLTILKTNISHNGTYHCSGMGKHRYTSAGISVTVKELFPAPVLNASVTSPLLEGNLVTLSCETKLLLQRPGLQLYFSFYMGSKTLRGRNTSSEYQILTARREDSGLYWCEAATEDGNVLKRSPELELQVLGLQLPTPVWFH

For CD47 (from UniProt Q08722), the Kd (SIRPα (Homo sapiens)) is given as 1000 nM.

With “his-tagged human FcRn ECD & β2 microglobulin (from UniProt P55899 24-297; P61769 21-119) (complex)” the Kd (trastuzumab [1]) was 253 nM and 217 nM and 203 nM, the Kd [2] was 129 nM and 189 nM and the Kd ([2]; mean) was 181 nM. It also gave a Kd [3] of 236 nM.

In the case of “his-tagged human FcγRIIIa ECD (from UniProt P08637 17-208) (receptor)”, the Kd (trastuzumab [4]) is reported as 134 nM, the Kd [5] is reported as 13.2 nM and 12.6 nM and 13.8 nM and the Kd ([5]; mean) is reported as 13.2 nM.

“human FcRn ECD & β2 microglobulin (from UniProt P55899 24-297; P61769 21-119) (complex)” gave a Kd [6] of 221 nM and a Kd (ISB 1442 (human) [7]) of 181 nM.

Work on “human FcγRI extracellular domain (ECD) (from UniProt P12314 16-292) (receptor)” yielded a Kd (Trastuzumab [8]) of 0.21 nM.

Substance “human FcγRIIIa ECD (from UniProt P08637 17-208) (receptor)” has a Kd (ISB 1442 (human) [9]) of 13 nM and a Kd (ISB 1442 WT Fc (human)) of 57 nM.
